According to US10919943B2, “Mutant proteins enabling agrochemical control of plant gene expression” (The Regents of the University of California, priority 2016, dated 2021):

B1: N151P: PYR1 mutant (protein, UniProt O49686 1-191, looked up, variant N151P)
Abscisic acid receptor PYR1: MPSELTPEERSELKNSIAEFHTYQLDPGSCSSLHAQRIHAPPELVWSIVRRFDKPQTYKHFIKSCSVEQNFEMRVGCTRDVIVISGLPANTSTERLDILDDERRVTGFSIIGGEHRLTNYKSVTTVHRFEKENRIWTVVLESYVVDMPEGPSEDDTRMFADTVVKLNLQKLATVAEAMARNSGDGSGSQVT
B2: N151G: PYR1 mutant (protein, UniProt O49686 1-191, looked up, variant N151G)
Abscisic acid receptor PYR1: MPSELTPEERSELKNSIAEFHTYQLDPGSCSSLHAQRIHAPPELVWSIVRRFDKPQTYKHFIKSCSVEQNFEMRVGCTRDVIVISGLPANTSTERLDILDDERRVTGFSIIGGEHRLTNYKSVTTVHRFEKENRIWTVVLESYVVDMPEGGSEDDTRMFADTVVKLNLQKLATVAEAMARNSGDGSGSQVT
B3: D155C: PYR1 mutant (protein, UniProt O49686 1-191, looked up, variant D155C)
Abscisic acid receptor PYR1: MPSELTPEERSELKNSIAEFHTYQLDPGSCSSLHAQRIHAPPELVWSIVRRFDKPQTYKHFIKSCSVEQNFEMRVGCTRDVIVISGLPANTSTERLDILDDERRVTGFSIIGGEHRLTNYKSVTTVHRFEKENRIWTVVLESYVVDMPEGNSEDCTRMFADTVVKLNLQKLATVAEAMARNSGDGSGSQVT
B4: N151Y: PYR1 mutant (protein, UniProt O49686 1-191, looked up, variant N151Y)
Abscisic acid receptor PYR1: MPSELTPEERSELKNSIAEFHTYQLDPGSCSSLHAQRIHAPPELVWSIVRRFDKPQTYKHFIKSCSVEQNFEMRVGCTRDVIVISGLPANTSTERLDILDDERRVTGFSIIGGEHRLTNYKSVTTVHRFEKENRIWTVVLESYVVDMPEGYSEDDTRMFADTVVKLNLQKLATVAEAMARNSGDGSGSQVT
B5: D155V: PYR1 mutant (protein, UniProt O49686 1-191, looked up, variant D155V)
Abscisic acid receptor PYR1: MPSELTPEERSELKNSIAEFHTYQLDPGSCSSLHAQRIHAPPELVWSIVRRFDKPQTYKHFIKSCSVEQNFEMRVGCTRDVIVISGLPANTSTERLDILDDERRVTGFSIIGGEHRLTNYKSVTTVHRFEKENRIWTVVLESYVVDMPEGNSEDVTRMFADTVVKLNLQKLATVAEAMARNSGDGSGSQVT
B6: N151D: PYR1 mutant (protein, UniProt O49686 1-191, looked up, variant N151D)
Abscisic acid receptor PYR1: MPSELTPEERSELKNSIAEFHTYQLDPGSCSSLHAQRIHAPPELVWSIVRRFDKPQTYKHFIKSCSVEQNFEMRVGCTRDVIVISGLPANTSTERLDILDDERRVTGFSIIGGEHRLTNYKSVTTVHRFEKENRIWTVVLESYVVDMPEGDSEDDTRMFADTVVKLNLQKLATVAEAMARNSGDGSGSQVT
B7: D155W: PYR1 mutant (protein, UniProt O49686 1-191, looked up, variant D155W)
Abscisic acid receptor PYR1: MPSELTPEERSELKNSIAEFHTYQLDPGSCSSLHAQRIHAPPELVWSIVRRFDKPQTYKHFIKSCSVEQNFEMRVGCTRDVIVISGLPANTSTERLDILDDERRVTGFSIIGGEHRLTNYKSVTTVHRFEKENRIWTVVLESYVVDMPEGNSEDWTRMFADTVVKLNLQKLATVAEAMARNSGDGSGSQVT
B8: N151W: PYR1 mutant (protein, UniProt O49686 1-191, looked up, variant N151W)
Abscisic acid receptor PYR1: MPSELTPEERSELKNSIAEFHTYQLDPGSCSSLHAQRIHAPPELVWSIVRRFDKPQTYKHFIKSCSVEQNFEMRVGCTRDVIVISGLPANTSTERLDILDDERRVTGFSIIGGEHRLTNYKSVTTVHRFEKENRIWTVVLESYVVDMPEGWSEDDTRMFADTVVKLNLQKLATVAEAMARNSGDGSGSQVT
B9: D155L: PYR1 mutant (protein, UniProt O49686 1-191, looked up, variant D155L)
Abscisic acid receptor PYR1: MPSELTPEERSELKNSIAEFHTYQLDPGSCSSLHAQRIHAPPELVWSIVRRFDKPQTYKHFIKSCSVEQNFEMRVGCTRDVIVISGLPANTSTERLDILDDERRVTGFSIIGGEHRLTNYKSVTTVHRFEKENRIWTVVLESYVVDMPEGNSEDLTRMFADTVVKLNLQKLATVAEAMARNSGDGSGSQVT
B10: N151I: PYR1 mutant (protein, UniProt O49686 1-191, looked up, variant N151I)
Abscisic acid receptor PYR1: MPSELTPEERSELKNSIAEFHTYQLDPGSCSSLHAQRIHAPPELVWSIVRRFDKPQTYKHFIKSCSVEQNFEMRVGCTRDVIVISGLPANTSTERLDILDDERRVTGFSIIGGEHRLTNYKSVTTVHRFEKENRIWTVVLESYVVDMPEGISEDDTRMFADTVVKLNLQKLATVAEAMARNSGDGSGSQVT
B11: N151C: PYR1 mutant (protein, UniProt O49686 1-191, looked up, variant N151C)
Abscisic acid receptor PYR1: MPSELTPEERSELKNSIAEFHTYQLDPGSCSSLHAQRIHAPPELVWSIVRRFDKPQTYKHFIKSCSVEQNFEMRVGCTRDVIVISGLPANTSTERLDILDDERRVTGFSIIGGEHRLTNYKSVTTVHRFEKENRIWTVVLESYVVDMPEGCSEDDTRMFADTVVKLNLQKLATVAEAMARNSGDGSGSQVT
B12: N151Q: PYR1 mutant (protein, UniProt O49686 1-191, looked up, variant N151Q)
Abscisic acid receptor PYR1: MPSELTPEERSELKNSIAEFHTYQLDPGSCSSLHAQRIHAPPELVWSIVRRFDKPQTYKHFIKSCSVEQNFEMRVGCTRDVIVISGLPANTSTERLDILDDERRVTGFSIIGGEHRLTNYKSVTTVHRFEKENRIWTVVLESYVVDMPEGQSEDDTRMFADTVVKLNLQKLATVAEAMARNSGDGSGSQVT
B13: D155P: PYR1 mutant (protein, UniProt O49686 1-191, looked up, variant D155P)
Abscisic acid receptor PYR1: MPSELTPEERSELKNSIAEFHTYQLDPGSCSSLHAQRIHAPPELVWSIVRRFDKPQTYKHFIKSCSVEQNFEMRVGCTRDVIVISGLPANTSTERLDILDDERRVTGFSIIGGEHRLTNYKSVTTVHRFEKENRIWTVVLESYVVDMPEGNSEDPTRMFADTVVKLNLQKLATVAEAMARNSGDGSGSQVT
B14: N151K: PYR1 mutant (protein, UniProt O49686 1-191, looked up, variant N151K)
Abscisic acid receptor PYR1: MPSELTPEERSELKNSIAEFHTYQLDPGSCSSLHAQRIHAPPELVWSIVRRFDKPQTYKHFIKSCSVEQNFEMRVGCTRDVIVISGLPANTSTERLDILDDERRVTGFSIIGGEHRLTNYKSVTTVHRFEKENRIWTVVLESYVVDMPEGKSEDDTRMFADTVVKLNLQKLATVAEAMARNSGDGSGSQVT
B15: N151E: PYR1 mutant (protein, UniProt O49686 1-191, looked up, variant N151E)
Abscisic acid receptor PYR1: MPSELTPEERSELKNSIAEFHTYQLDPGSCSSLHAQRIHAPPELVWSIVRRFDKPQTYKHFIKSCSVEQNFEMRVGCTRDVIVISGLPANTSTERLDILDDERRVTGFSIIGGEHRLTNYKSVTTVHRFEKENRIWTVVLESYVVDMPEGESEDDTRMFADTVVKLNLQKLATVAEAMARNSGDGSGSQVT
B16: N151H: PYR1 mutant (protein, UniProt O49686 1-191, looked up, variant N151H)
Abscisic acid receptor PYR1: MPSELTPEERSELKNSIAEFHTYQLDPGSCSSLHAQRIHAPPELVWSIVRRFDKPQTYKHFIKSCSVEQNFEMRVGCTRDVIVISGLPANTSTERLDILDDERRVTGFSIIGGEHRLTNYKSVTTVHRFEKENRIWTVVLESYVVDMPEGHSEDDTRMFADTVVKLNLQKLATVAEAMARNSGDGSGSQVT
B17: D155M: PYR1 mutant (protein, UniProt O49686 1-191, looked up, variant D155M)
Abscisic acid receptor PYR1: MPSELTPEERSELKNSIAEFHTYQLDPGSCSSLHAQRIHAPPELVWSIVRRFDKPQTYKHFIKSCSVEQNFEMRVGCTRDVIVISGLPANTSTERLDILDDERRVTGFSIIGGEHRLTNYKSVTTVHRFEKENRIWTVVLESYVVDMPEGNSEDMTRMFADTVVKLNLQKLATVAEAMARNSGDGSGSQVT
B18: N151F: PYR1 mutant (protein, UniProt O49686 1-191, looked up, variant N151F)
Abscisic acid receptor PYR1: MPSELTPEERSELKNSIAEFHTYQLDPGSCSSLHAQRIHAPPELVWSIVRRFDKPQTYKHFIKSCSVEQNFEMRVGCTRDVIVISGLPANTSTERLDILDDERRVTGFSIIGGEHRLTNYKSVTTVHRFEKENRIWTVVLESYVVDMPEGFSEDDTRMFADTVVKLNLQKLATVAEAMARNSGDGSGSQVT
B19: N151R: PYR1 mutant (protein, UniProt O49686 1-191, looked up, variant N151R)
Abscisic acid receptor PYR1: MPSELTPEERSELKNSIAEFHTYQLDPGSCSSLHAQRIHAPPELVWSIVRRFDKPQTYKHFIKSCSVEQNFEMRVGCTRDVIVISGLPANTSTERLDILDDERRVTGFSIIGGEHRLTNYKSVTTVHRFEKENRIWTVVLESYVVDMPEGRSEDDTRMFADTVVKLNLQKLATVAEAMARNSGDGSGSQVT
B20: N151V: PYR1 mutant (protein, UniProt O49686 1-191, looked up, variant N151V)
Abscisic acid receptor PYR1: MPSELTPEERSELKNSIAEFHTYQLDPGSCSSLHAQRIHAPPELVWSIVRRFDKPQTYKHFIKSCSVEQNFEMRVGCTRDVIVISGLPANTSTERLDILDDERRVTGFSIIGGEHRLTNYKSVTTVHRFEKENRIWTVVLESYVVDMPEGVSEDDTRMFADTVVKLNLQKLATVAEAMARNSGDGSGSQVT
B21: D155R: PYR1 mutant (protein, UniProt O49686 1-191, looked up, variant D155R)
Abscisic acid receptor PYR1: MPSELTPEERSELKNSIAEFHTYQLDPGSCSSLHAQRIHAPPELVWSIVRRFDKPQTYKHFIKSCSVEQNFEMRVGCTRDVIVISGLPANTSTERLDILDDERRVTGFSIIGGEHRLTNYKSVTTVHRFEKENRIWTVVLESYVVDMPEGNSEDRTRMFADTVVKLNLQKLATVAEAMARNSGDGSGSQVT

System: HAB1
Test: Yeast two hybrid of pBD-PYR1 site saturation mutants with pACT-HAB1 on 10 μM ABA, β-galactosidase staining
Format: cell-based, Arabidopsis
Parameters: key: x: Mutations in PYR1 that disrupt ABA-induced binding to PYR1 to HAB1
Conditions: S. cerevisiae Y190, 10 μM ABA; dead = lack of visible staining in comparison to wild type control
Procedure, shortened: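 Binding was read by β-galactosidase staining of chloroform-lysed colonies after 2 days at 30° C on SD (-Leu, -Trp) plates containing 10 μM (+)-ABA. Yeast strain Y190 carried the BD-PYR1 single-substitution mutants plus the AD-HAB1 fusion. Absence of staining versus the wild-type control defined "dead" mutants.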

| Mutations in PYR1 that disrupt ABA-induced binding to PYR1 to HAB1 | Molecule |
| --- | --- |
| x | B1 |
| x | B2 |
| x | B3 |
| x | B4 |
| x | B5 |
| x | B6 |
| x | B7 |
| x | B8 |
| x | B9 |
| x | B10 |
| x | B11 |
| x | B12 |
| x | B13 |
| x | B14 |
| x | B15 |
| x | B16 |
| x | B17 |
| x | B18 |
| x | B19 |
| x | B20 |
| x | B21 |
